{"source": "paper PMC7591462", "about": "“The Diversity and Similarity of Transmembrane Trimerization of TNF Receptors” (Frontiers in Cell and Developmental Biology, 2020)", "target": "the molecule itself", "test": "SDS-PAGE of bicelle-reconstituted protein; protein reconstituted in DMPC-DH6PC bicelles (q = 0.5; DMPC:DH6PC approximately 1:2), 20 mM sodium phosphate pH 6.8; mixed with LDS loading buffer without heating or reducing agents; NuPAGE 12% gel, 200 V on ice"}
{"protein": "GTTVLLPLVIFFGLALLSLLFIGLAYRYQR (domain or fragment, UniProt P19438 209-238, looked up, TNFR1 (tumor necrosis factor receptor 1), human, isoform 1, transmembrane fragment residues 209-238 with C223A and M233A; Released from His9-TrpLE by cyanogen bromide at a methionine added between TrpLE and the fragment; Isotope-labelled (15N, 13C, 2H) for NMR; also called TNFR TMH; TMH of TNFR1; source: reconstituted in DMPC-DH6PC bicelles; not shown: His9, N-terminal, cleaved; TrpLE, …)", "note": "[human TNFR1 TM fragment, residue 209-238 (TNFR1 TMH), C223A M233A]", "values": [{"measurement": "stoichiometry N", "value": 3}]}
